This passage reports IC50 and Kd results from the Immune Epitope Database (IEDB).

The target of assay [1] is HLA-A*24:02. Put plainly: IEDB peptide-MHC binding, purified MHC/competitive/fluorescence; ≥ and ≤ were set here for values at or beyond the usual limits of such assays. Conditions: source organism: Zaire ebolavirus.
Assay [2] addresses HLA-A*02:01. The description is as above.
Assay [3] deals with HLA-A*11:01. The assay is described as above.
Assay [4] concerns the target HLA-A*03:01. Described as above.
In assay [5] the target is HLA-A*03:01. Put plainly: IEDB peptide-MHC binding, purified MHC/competitive/fluorescence; filed as Kd, often an IC50 or EC50 that approximates it; ≥ and ≤ were set here for values at or beyond the usual limits of such assays.
Assay [6] addresses HLA-A*02:01. Put plainly: IEDB peptide-MHC binding, purified MHC/direct/fluorescence; filed as Kd, often an IC50 or EC50 that approximates it; ≥ and ≤ were set here for values at or beyond the usual limits of such assays. Conditions: source organism: Reston ebolavirus - Reston.
Assay [7] concerns the target HLA-B*51:01. Put plainly: IEDB peptide-MHC binding, purified MHC/competitive/fluorescence; filed as Kd, often an IC50 or EC50 that approximates it; ≥ and ≤ were set here for values at or beyond the usual limits of such assays. Conditions: source organism: Reston ebolavirus - Reston (1989).
Assay [8] deals with HLA-B*18:01. The assay is described as above. Particulars: source organism: Reston ebolavirus - Reston (1989).
Assay [9] concerns the target HLA-A*26:01. The description is as above. Conditions: source organism: Reston ebolavirus - Reston (1989).
Assay [10] addresses HLA-B*39:01. The description is as above. Conditions: source organism: Reston ebolavirus - Reston (1989).
Assay [11] has as its target HLA-B*27:03. Described as above. Particulars: source organism: Reston ebolavirus - Reston (1989).
Assay [12] concerns the target HLA-B*46:01. The assay is described as above. Conditions: source organism: Reston ebolavirus - Reston (1989).
For assay [13], the target named is HLA-B*57:01. Described as above. Particulars: source organism: Reston ebolavirus - Reston (1989).
Assay [14] deals with HLA-B*35:01. Put plainly: IEDB peptide-MHC binding, purified MHC/competitive/radioactivity; filed as Kd, often an IC50 or EC50 that approximates it; ≥ and ≤ were set here for values at or beyond the usual limits of such assays.
The target of assay [15] is HLA-B*51:01. The description is as above.
For assay [16], the target named is HLA-B*07:02. Described as above.
Assay [17] addresses HLA-B*53:01. Described as above.
Assay [18] addresses HLA-B*54:01. Described as above.
The target in assay [19] is HLA-B*15:01. Put plainly: IEDB peptide-MHC binding, purified MHC/competitive/fluorescence; ≥ and ≤ were set here for values at or beyond the usual limits of such assays. Conditions: source organism: Variola virus.
Setting [20] is: source organism: Zaire ebolavirus.
The mark [21] stands for this setting: source organism: Vaccinia virus.
The mark [22] stands for this setting: source organism: Triticum aestivum.
Setting [23] is: source organism: Mammarenavirus lassaense.
[24] abbreviates: source organism: Vaccinia virus WR.
The mark [25] stands for this setting: source organism: Mammarenavirus juninense.

As to IIHDFVDKT, the results for the IC50 in assay [1], in assay [2] (setting [20]) and in [3] (setting [20]) were at least 287000 nM, 14100 nM and at least 148000 nM, respectively.

In the case of LFGIKCIKK, the IC50 (in general, the concentration at which inhibition is half-maximal) is 8170 nM in [3] (setting [21]) and 31700 nM in [4] (setting [21]).

On to CLRIPMTDH, for which the Kd – broadly, the constant that tells how readily two partners part at equilibrium – in assay [5] (source organism: Listeria monocytogenes EGD-e) was at least 20000 nM.

In [5] (source organism: Vibrio parahaemolyticus K5030), KVHAVLTEK came in with a Kd of 20.6 nM.

As to QTNAMVTLR, the IC50 in assay [3] (setting [20]) was 1200 nM; in assay [4] (setting [20]), 16200 nM.

For the sequence NTTGKLIWK, the half-maximal inhibitory concentration (IC50) in assay [3] (setting [20]) was found to be 1040 nM; in assay [4] (setting [20]), 24700 nM.

On to LIMEFNSLL, for which the Kd was 5.2 nM in assay [6]; at least 20000 nM in assay [7]; at least 20000 nM in [8]; at least 20000 nM in assay [9]; at least 20000 nM in [10]; at least 20000 nM in assay [11]. The Kd in [12] and in [13] was at least 20000 nM throughout.

In assay [5] (source organism: Vibrio parahaemolyticus AQ3810), MMYTVSLGH yielded a Kd of 1.2 nM.

QPYLQLQPFL: the dissociation constant Kd in assay [14] (setting [22]) is 369 nM; in assay [15] (setting [22]), 150 nM; in assay [16] (setting [22]), 632 nM; in assay [17] (setting [22]), at least 22000 nM; in [18] (setting [22]), at least 23400 nM.

Take LQLPRDRFK: the IC50 in assay [3] (setting [20]) worked out at 1760 nM; in assay [4] (setting [20]), 5420 nM.

FPAGLTYSQL: the Kd in assay [14] (setting [23]) was determined as 115 nM; in assay [15] (setting [23]) it was 8280 nM; in [16] (setting [23]) it was 155 nM; in assay [17] (setting [23]), 111 nM; in [18] (setting [23]), 603 nM.

Turning to FPAIFSAEV, the Kd came to 16.8 nM in [14] (setting [23]); 85.6 nM in assay [15] (setting [23]); 65.3 nM in assay [16] (setting [23]); 40.4 nM in [17] (setting [23]); 6.94 nM in assay [18] (setting [23]).

Take YPDLNFDNTY: the Kd was 18.4 nM in [14] (setting [24]); at least 69600 nM in [15] (setting [24]); at least 69600 nM in [16] (setting [24]); 22.2 nM in assay [17] (setting [24]); 1750 nM in assay [18] (setting [24]).

Consider LPAMCNVYI, for which the Kd in [14] (setting [22]) was 1100 nM; in assay [15] (setting [22]), 272 nM; in assay [16] (setting [22]) it was 685 nM; in assay [17] (setting [22]), 18.2 nM; in assay [18] (setting [22]), 182 nM.

With TTAAGPPKA, the IC50 in assay [2] (setting [20]) amounted to 11700 nM; in assay [3] (setting [20]) it was 40600 nM.

Regarding LPYPQPQL, the Kd in assay [14] (setting [22]) stood at 10600 nM; in [15] (setting [22]), 32.3 nM; in [16] (setting [22]), 109 nM; in [17] (setting [22]), 14900 nM; in [18] (setting [22]) it was 1390 nM.

In turn, KMARAGLGK showed a dissociation constant (Kd) in assay [5] (source organism: Burkholderia vietnamiensis G4) of 20.2 nM.

On to HPDMDSLMI, for which the dissociation constant Kd was 2010 nM in assay [14] (setting [25]); 2900 nM in assay [15] (setting [25]); 1720 nM in assay [16] (setting [25]); 79.6 nM in assay [17] (setting [25]); at least 23200 nM in [18] (setting [25]).

In the case of KLSYRNKPS, the figures for the concentration for half-maximal inhibition (IC50) in assay [2] (setting [21]) and in [4] (setting [21]) were at least 196000 nM and at least 282000 nM, respectively.

For VAGLITGGR, the IC50 in [2] (setting [20]) is at least 655000 nM; in assay [3] (setting [20]), 26100 nM; in assay [4] (setting [20]), at least 104000 nM.

Take QVPKLLLWF: the IC50 in [2] (source organism: Variola virus) is 2060 nM; in assay [19], at least 371000 nM.
